For data set [1], the system named is HeLa Kyoto. The experiment in a line: solubility in G1/S (NP-40 vs SDS abundance) (log2 ratio); higher = more soluble. Conditions: cell cycle stage: G1/S.
Data set [2] relates to HeLa Kyoto. In words: melting temperature (median over replicates), in situ; higher = more thermally stable.
Data set [3] deals with HeLa Kyoto. In words: solubility change mitosis vs G1/S (difference of NP-40 vs SDS log2 ratios) (log2 ratio difference); higher = more soluble in mitosis.
Data set [4] has as its system HeLa Kyoto. In words: thermal stability score vs G1/S (z-score of summed log2 fold changes over temperatures); higher = more thermally stable than in G1/S.
The mark [5] stands for this setting: cell cycle stage: early G1 (4.5 h after nocodazole release).
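For melting temperature (median over replicates), in situ in this document: HeLa Kyoto cells synchronized by double thymidine or nocodazole block, proteins quantified by TMT10plex mass spectrometry, three independent biological replicates.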
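For solubility change mitosis vs G1/S (difference of NP-40 vs SDS log2 ratios) in this document: synchronized HeLa Kyoto cells (double thymidine block for G1/S, nocodazole release for mitosis), protein amounts in NP-40 versus SDS lysates quantified by mass spectrometry, three biological replicates.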
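For solubility in G1/S (NP-40 vs SDS abundance) in this document: HeLa Kyoto cells arrested at G1/S by double thymidine block, proteins quantified by TMT10plex mass spectrometry in mild NP-40 versus SDS extracts, three biological replicates.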
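For thermal stability score vs G1/S (z-score of summed log2 fold changes over temperatures) in this document: synchronized HeLa Kyoto cells, proteins quantified by TMT10plex mass spectrometry, three biological replicates, mitosis taken 0.5 h after nocodazole release, G1/S directly after double thymidine block.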

Turning to “MTQAEIKLCSLLLQEHFGEIVEKIGVHLIRTGSQPLRVIAHDTGTSLDQVKKALCVLVQHNLVSYQVHKRGVVEYEAQCSRVLRMLRYPRYIYTTKTLYSDTGELIVEELLLNGKLTMSAVVKKVADRLTETMEDGKTMDYAEVSNTFVRLADTHFVQRCPSVPTTENSDPGPPPPAPTLVINEKDMYLVPKLSLIGKGKRRRSSDEDAAGEPKAKRPKYTTDNKEPIPDDGIYWQANLDRFHQHFRDQAIVSAVANRMDQTSSEIVRTMLRMSEITTSSSAPFTQPLSSNEIFRSLPVGYNISKQVLDQYLTLLADDPLEFVGKSGDSGGGMYVINLHKALASLATATLESVVQERFGSRCARIFRLVLQKKHIEQKQVEDFAMIPAKEAKDMLYKMLSENFMSLQEIPKTPDHAPSRTFYLYTVNILSAARMLLHRCYKSIANLIERRQFETKENKRLLEKSQRVEAIIASMQATGAEEAQLQEIEEMITAPERQQLETLKRNVNKLDASEIQVDETIFLLESYIECTMKRQ [POLR3C]”, the “solubility in G1/S (log2)” value with HeLa Kyoto [1] was 0.132. Also, the values for the melting temperature with HeLa Kyoto [2] (cell cycle stage: G1/S) and in the data set with HeLa Kyoto [2] (cell cycle stage: mitosis) were 50.5 °C and 51.1 °C, respectively. In addition, the “solubility change mitosis (log2)” value with HeLa Kyoto [3] is -0.0973. For the same substance, the thermal stability score with HeLa Kyoto [4] (setting [5]) was found to be 1.65; with HeLa Kyoto [4] (cell cycle stage: mitosis) it was 1.67.
As for “MKLLTRAGSFSRFYSLKVAPKVKATAAPAGAPPQPQDLEFTKLPNGLVIASLENYSPVSRIGLFIKAGSRYEDFSNLGTTHLLRLTSSLTTKGASSFKITRGIEAVGGKLSVTATRENMAYTVECLRGDVDILMEFLLNVTTAPEFRRWEVADLQPQLKIDKAVAFQNPQTHVIENLHAAAYRNALANPLYCPDYRIGKVTSEELHYFVQNHFTSARMALIGLGVSHPVLKQVAEQFLNMRGGLGLSGAKANYRGGEIREQNGDSLVHAAFVAESAVAGSAEANAFSVLQHVLGAGPHVKRGSNTTSHLHQAVAKATQQPFDVSAFNASYSDSGLFGIYTISQATAAGDVIKAAYNQVKTIAQGNLSNTDVQAAKNKLKAGYLMSVESSECFLEEVGSQALVAGSYMPPSTVLQQIDSVANADIINAAKKFVSGQKSMAASGNLGHTPFVDEL [UQCRC2]”, in the data set on HeLa Kyoto [1], the “solubility in G1/S (log2)” value amounted to 0.243. For the same substance, the results for the melting temperature in the data set on HeLa Kyoto [2] (cell cycle stage: G1/S) and in the data set with HeLa Kyoto [2] (cell cycle stage: mitosis) were 55.8 °C and 54.7 °C, respectively. Also, in the data set on HeLa Kyoto [3], the “solubility change mitosis (log2)” value was -0.00613. Moreover, the thermal stability score in the data set on HeLa Kyoto [4] (setting [5]) was -1.64; in the data set on HeLa Kyoto [4] (cell cycle stage: mitosis) it was -4.8.
As for “MAAKVFESIGKFGLALAVAGGVVNSALYNVDAGHRAVIFDRFRGVQDIVVGEGTHFLIPWVQKPIIFDCRSRPRNVPVITGSKDLQNVNITLRILFRPVASQLPRIFTSIGEDYDERVLPSITTEILKSVVARFDAGELITQRELVSRQVSDDLTERAATFGLILDDVSLTHLTFGKEFTEAVEAKQVAQQEAERARFVVEKAEQQKKAAIISAEGDSKAAELIANSLATAGDGLIELRKLEAAEDIAYQLSRSRNITYLPAGQSVLLQLPQ [PHB]”, the “solubility in G1/S (log2)” value in the data set with HeLa Kyoto [1] was -0.137. In addition, the values for the melting temperature with HeLa Kyoto [2] (cell cycle stage: G1/S) and in the data set with HeLa Kyoto [2] (cell cycle stage: mitosis) were 59.5 °C and 58.1 °C, respectively. Also, the “solubility change mitosis (log2)” value with HeLa Kyoto [3] is -0.0774. Further, the thermal stability score in the data set with HeLa Kyoto [4] (setting [5]) was -1.45; in the data set on HeLa Kyoto [4] (cell cycle stage: mitosis) it was -2.71.
For the substance UGGT2, the “solubility in G1/S (log2)” value in the data set with HeLa Kyoto [1] is -0.222. Also, the melting temperature was found to be 54 °C with HeLa Kyoto [2] (cell cycle stage: G1/S) and 54.1 °C in the data set with HeLa Kyoto [2] (cell cycle stage: mitosis). The “solubility change mitosis (log2)” value in the data set on HeLa Kyoto [3] is -0.15. The thermal stability score was determined as 2.37 in the data set with HeLa Kyoto [4] (setting [5]) and 4.53 in the data set with HeLa Kyoto [4] (cell cycle stage: mitosis).
For the substance “MSAPSEEEEYARLVMEAQPEWLRAEVKRLSHELAETTREKIQAAEYGLAVLEEKHQLKLQFEELEVDYEAIRSEMEQLKEAFGQAHTNHKKVAADGESREESLIQESASKEQYYVRKVLELQTELKQLRNVLTNTQSENERLASVAQELKEINQNVEIQRGRLRDDIKEYKFREARLLQDYSELEEENISLQKQVSVLRQNQVEFEGLKHEIKRLEEETEYLNSQLEDAIRLKEISERQLEEALETLKTEREQKNSLRKELSHYMSINDSFYTSHLHVSLDGLKFSDDAAEPNNDAEALVNGFEHGGLAKLPLDNKTSTPKKEGLAPPSPSLVSDLLSELNISEIQKLKQQLMQMEREKAGLLATLQDTQKQLEHTRGSLSEQQEKVTRLTENLSALRRLQASKERQTALDNEKDRDSHEDGDYYEVDINGPEILACKYHVAVAEAGELREQLKALRSTHEAREAQHAEEKGRYEAEGQALTEKVSLLEKASRQDRELLARLEKELKKVSDVAGETQGSLSVAQDELVTFSEELANLYHHVCMCNNETPNRVMLDYYREGQGGAGRTSPGGRTSPEARGRRSPILLPKGLLAPEAGRADGGTGDSSPSPGSSLPSPLSDPRREPMNIYNLIAIIRDQIKHLQAAVDRTTELSRQRIASQELGPAVDKDKEALMEEILKLKSLLSTKREQITTLRTVLKANKQTAEVALANLKSKYENEKAMVTETMMKLRNELKALKEDAATFSSLRAMFATRCDEYITQLDEMQRQLAAAEDEKKTLNSLLRMAIQQKLALTQRLELLELDHEQTRRGRAKAAPKTKPATPSL [BICD2]”, the “solubility in G1/S (log2)” value in the data set with HeLa Kyoto [1] worked out at 0.628. Moreover, the results for the melting temperature in the data set with HeLa Kyoto [2] (cell cycle stage: G1/S) and in the data set on HeLa Kyoto [2] (cell cycle stage: mitosis) were 49.7 °C and 49.1 °C, respectively. Besides, the “solubility change mitosis (log2)” value in the data set on HeLa Kyoto [3] is 0.0849. Further, the thermal stability score in the data set on HeLa Kyoto [4] (setting [5]) was -0.115; in the data set on HeLa Kyoto [4] (cell cycle stage: mitosis), 0.199.
Consider “MADGELNVDSLITRLLEVRGCRPGKIVQMTEAEVRGLCIKSREIFLSQPILLELEAPLKICGDIHGQYTDLLRLFEYGGFPPEANYLFLGDYVDRGKQSLETICLLLAYKIKYPENFFLLRGNHECASINRIYGFYDECKRRFNIKLWKTFTDCFNCLPIAAIVDEKIFCCHGGLSPDLQSMEQIRRIMRPTDVPDTGLLCDLLWSDPDKDVQGWGENDRGVSFTFGADVVSKFLNRHDLDLICRAHQVVEDGYEFFAKRQLVTLFSAPNYCGEFDNAGGMMSVDETLMCSFQILKPSEKKAKYQYGGLNSGRPVTPPRTANPPKKR [PPP1CB]”, for which the “solubility in G1/S (log2)” value in the data set with HeLa Kyoto [1] is -0.161. Further, the melting temperature amounted to 52.3 °C in the data set with HeLa Kyoto [2] (cell cycle stage: G1/S) and 52.1 °C in the data set on HeLa Kyoto [2] (cell cycle stage: mitosis). For the same substance, the “solubility change mitosis (log2)” value in the data set on HeLa Kyoto [3] came out at 0.0171. Further, the thermal stability score was 0.423 with HeLa Kyoto [4] (setting [5]) and 0.737 in the data set on HeLa Kyoto [4] (cell cycle stage: mitosis).
